Laboratory results published in patent publication US20100190710A1, “IL-23 RECEPTOR ANTAGONISTS AND USES THEREOF” (Valorisation HSJ, Societe en Commandite, priority 2007, published 2010).
“Also recorded” adds a separate entry of the source. Square brackets hold non-standard residues; d marks the D form. Ends that are not written are not given here.

Assays:
IL-23 receptor = target: T1, IL-23 receptor (Homo sapiens, UniProt Q5VWK5); assay: IL-23-induced STAT3 phosphorylation in PMA-activated HL-60 monocytes (Western blot); type: cell-based; parameters: endogenous in cells; settings: PMA-activated HL-60 human monocytes; peptide 1 μM, 30 min pre-incubation; IL-23 10 ng/ml, 15 min
T1 sequence (Q5VWK5 24-629): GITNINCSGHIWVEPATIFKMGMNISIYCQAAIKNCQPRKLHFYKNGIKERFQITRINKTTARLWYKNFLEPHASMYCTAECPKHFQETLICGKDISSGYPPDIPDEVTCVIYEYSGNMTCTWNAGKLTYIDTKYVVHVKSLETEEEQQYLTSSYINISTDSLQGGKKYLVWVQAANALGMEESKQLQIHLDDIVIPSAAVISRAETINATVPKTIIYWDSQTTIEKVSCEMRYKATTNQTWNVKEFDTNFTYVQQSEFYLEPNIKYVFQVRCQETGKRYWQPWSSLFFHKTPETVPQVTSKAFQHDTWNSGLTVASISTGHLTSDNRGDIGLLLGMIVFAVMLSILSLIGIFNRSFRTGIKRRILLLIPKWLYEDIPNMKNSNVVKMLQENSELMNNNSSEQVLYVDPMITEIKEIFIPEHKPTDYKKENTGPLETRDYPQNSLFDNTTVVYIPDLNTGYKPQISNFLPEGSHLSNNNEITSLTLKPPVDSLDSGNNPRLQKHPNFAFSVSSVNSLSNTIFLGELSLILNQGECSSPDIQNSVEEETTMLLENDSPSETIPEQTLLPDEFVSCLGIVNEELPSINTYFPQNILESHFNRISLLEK
Experimental: FIG. 2 is a graph showing the results of efficacy screening of peptides designed from the IL-23 receptor. HL-60 human monocytes were pre-incubated for 30 minutes with the particular peptides (1 μM) and stimulated for 15 minutes with IL-23 (10 ng/ml). Western Blot analysis of phosphorylated-STAT3 and total STAT3 was performed on cell lysates. Immunoblot densitometry was measured using ImagePro4+ software. […] FIGS. 3A and 3B are graphs showing inhibition of IL-23-induced STAT3 phosphorylation and TNFα generation. […] Western Blot analysis was performed on cell lysates, and immunoblot densitometry was measured using ImagePro4+ software. […] TNFα production was quantified by ELISA 24 hours after stimulation with IL-23 using the Quantikine ELISA Kit (R&D systems). […] D-peptides 2303, 2305, 2307 and 2309 (1 μM) inhibit IL-23-induced STAT3 phosphorylation in phorbol 12-myristate 13-acetate (PMA)-activated human monocytes (HL-60) (FIG. 2).

IL-23R = target: T2, IL-23R (Mus musculus, UniProt Q8K4B4); assay: IL-23-induced STAT3 phosphorylation in freshly isolated splenocytes (Alpha Screen SureFire p-STAT-3); type: cell-based
T2 construct: Spleens were sterilely removed from mice, sliced, and mashed in the presence of PBS buffer; from tissue; host or cells: mouse spleen: freshly isolated splenocytes, and CD4+ cells differentiated into TH17 cells
T2 sequence (Q8K4B4 24-644): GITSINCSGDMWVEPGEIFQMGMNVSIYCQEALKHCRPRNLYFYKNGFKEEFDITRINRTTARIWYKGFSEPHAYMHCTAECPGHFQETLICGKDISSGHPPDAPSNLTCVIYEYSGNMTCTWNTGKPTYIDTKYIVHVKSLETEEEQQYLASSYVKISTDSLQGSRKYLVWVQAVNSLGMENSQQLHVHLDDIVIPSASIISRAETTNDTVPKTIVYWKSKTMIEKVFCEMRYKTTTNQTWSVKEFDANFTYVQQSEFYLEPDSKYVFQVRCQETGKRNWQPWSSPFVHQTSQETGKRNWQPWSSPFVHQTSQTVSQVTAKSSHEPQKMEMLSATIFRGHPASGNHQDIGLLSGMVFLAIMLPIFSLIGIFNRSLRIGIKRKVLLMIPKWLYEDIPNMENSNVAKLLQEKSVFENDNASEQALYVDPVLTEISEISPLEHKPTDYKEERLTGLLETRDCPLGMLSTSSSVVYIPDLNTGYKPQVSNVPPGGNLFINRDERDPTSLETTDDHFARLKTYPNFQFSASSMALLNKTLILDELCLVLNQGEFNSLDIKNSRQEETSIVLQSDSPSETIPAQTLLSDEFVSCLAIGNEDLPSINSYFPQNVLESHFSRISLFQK
Experimental: Spleens were sterilely removed from mice, sliced, and mashed in the presence of PBS buffer, 2% fetal bovine serum, and 1 mM EDTA. Tissue was allowed to pass through a number 26 syringe and was filtered through a 70 μm mesh nylon strainer. Cells were cultured with non-essential amino acids, 2 μg/ml of anti-CD3, and 20 μg/ml of anti-CD-28 as survival and differentiation factors.
Splenocytes or TH17 cells were distributed in 384-well plates (Optiplate; Perkin Elmer) (100,000 cells/well). Cells were pre-incubated for 30 minutes with different concentrations of peptide APG-2305 or APG-2309 and incubated with 25 ng/ml of IL-23 (R&D systems) for 10 minutes. STAT3 phosphorylation was determined with the kit Alpha Screen SureFire p-STAT-3 assay from Perkin Elmer according to manufacturer's instructions. Briefly, after incubation with IL-23, cells were lysed and contacted with (1) protein A acceptor conjugated beads coated with anti-p-STAT-3 (Tyr705) and (2) streptavidin-coated donor beads. The resulting signal was measured with a Perkin Elmer Wallac En vision 2104 Multilabel reader. Graphs were generated using GraphPrism 4 software.
The effect of peptide APG-2305 and APG-2309 derivatives on IL-23-induced STAT3 phosphorylation was determined using CD-1 mice freshly isolated splenocytes and the Alpha Screen p-STAT3 assay (see above materials and methods) (FIGS. 6 and 7). […] As described herein, based on the efficacy of derivatives, we have identified regions in APG-2305 and APG-2309 peptides that are important for their ability to affect IL-23R activity.

[1] = target: T3, mouse IL-23 receptor (IL-23R) on mouse splenocytes and differentiated TH17 cells (mouse, UniProt Q8K4B4 24-644); assay: cell-based or functional assay
T3 sequence (looked up): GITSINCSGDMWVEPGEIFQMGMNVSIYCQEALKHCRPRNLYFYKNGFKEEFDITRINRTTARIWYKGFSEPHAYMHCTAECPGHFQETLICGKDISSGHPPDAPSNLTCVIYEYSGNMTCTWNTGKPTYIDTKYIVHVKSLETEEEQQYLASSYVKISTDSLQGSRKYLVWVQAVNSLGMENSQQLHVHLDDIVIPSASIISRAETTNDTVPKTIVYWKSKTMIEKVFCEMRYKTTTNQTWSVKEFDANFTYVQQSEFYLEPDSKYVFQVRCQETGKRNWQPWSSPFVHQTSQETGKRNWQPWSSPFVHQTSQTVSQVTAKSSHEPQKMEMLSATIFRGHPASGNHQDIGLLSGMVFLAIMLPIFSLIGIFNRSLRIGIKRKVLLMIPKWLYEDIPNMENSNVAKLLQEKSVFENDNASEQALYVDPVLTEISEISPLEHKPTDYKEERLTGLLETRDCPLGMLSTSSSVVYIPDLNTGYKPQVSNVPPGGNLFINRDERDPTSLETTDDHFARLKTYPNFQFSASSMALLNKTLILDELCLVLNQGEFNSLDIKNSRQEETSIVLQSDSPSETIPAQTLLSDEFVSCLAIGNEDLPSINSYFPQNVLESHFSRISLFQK

[2] = target: T4, human IL-23 receptor (IL-23R) on PMA-activated HL-60 human monocytes (human, UniProt Q5VWK5 24-629); assay: cell-based or functional assay
T4 sequence (looked up): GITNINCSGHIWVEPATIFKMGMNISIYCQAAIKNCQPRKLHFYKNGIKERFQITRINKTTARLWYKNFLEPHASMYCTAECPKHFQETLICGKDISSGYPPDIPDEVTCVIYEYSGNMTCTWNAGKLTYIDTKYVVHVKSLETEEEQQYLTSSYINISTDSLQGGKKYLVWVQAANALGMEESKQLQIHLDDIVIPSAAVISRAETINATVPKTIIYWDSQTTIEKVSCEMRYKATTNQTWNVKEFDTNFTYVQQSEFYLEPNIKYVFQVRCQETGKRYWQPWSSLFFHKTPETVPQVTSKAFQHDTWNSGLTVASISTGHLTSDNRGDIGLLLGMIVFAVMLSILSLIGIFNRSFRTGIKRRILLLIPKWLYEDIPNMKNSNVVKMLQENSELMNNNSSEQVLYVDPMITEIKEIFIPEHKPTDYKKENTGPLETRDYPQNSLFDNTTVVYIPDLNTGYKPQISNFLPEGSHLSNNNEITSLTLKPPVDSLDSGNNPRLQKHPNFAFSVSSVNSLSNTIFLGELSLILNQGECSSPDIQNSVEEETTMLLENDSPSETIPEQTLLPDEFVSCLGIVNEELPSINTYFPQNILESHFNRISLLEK

[3] = mouse splenocytes (FIGS. 6 and 7)

Row | Molecule | activity of derivative compared to parent peptide, STAT3 phosphorylation assay (IL-23R; [3]) | further results
1 | DLSSGYPPDI [Peptide 2301] | – | effect on IL-23-induced STAT3 phosphorylation (IL-23 receptor): agonistic properties; also recorded: agonist of IL-23R biological activity
2 | EEQQYL [Peptide 2305-5] | measurable loss of activity | –
3 | EQQYL [Peptide 2305-6] | measurable loss of activity | –
4 | ESKQLQL [Peptide 2309-3] | increases the activity | –
5 | KKYLVWVQ [Peptide 2307] | – | effect on IL-23-induced STAT3 phosphorylation (IL-23 receptor): antagonize IL-23-induced STAT3 phosphorylation; also recorded: demonstrable efficacy; also recorded: inhibit
6 | LPDEVTCV [Peptide 2303] | – | effect on IL-23-induced STAT3 phosphorylation (IL-23 receptor): antagonize IL-23-induced STAT3 phosphorylation; also recorded: demonstrable efficacy; also recorded: inhibit
7 | LVLDDLHLQLQKSEEMGLANAAQV (not fully specified (some residues); also: D-amino acids, extent not given here) [Peptide 2309-2-1] | better efficacy than the parent 2309 peptide | –
8 | MAESKQLQL [Peptide 2309-1] | increases the activity | –
9 | TEEAQQYL [Peptide 2305-1] | total loss of activity | –
10 | TEEE [Peptide 2305-11] | increased the activity | –
11 | TEEEQ [Peptide 2305-10] | increased the activity | –
12 | TEEEQQ [Peptide 2305-9] | abolished the activity | –
13 | TEEEQQY [Peptide 2305-8] | abolished the activity | –
14 | VQAANALGMEESKQLQLHLDDLVL [Peptide 2309-1-1, extended region of peptide 2309 covering part of the loop in D3 domain of IL-23R] | – | inhibition of STAT3 phosphorylation by derivative (IL-23R; mouse splenocytes (FIG. 7)): 100%; increase in activity relative to the parent peptide (IL-23R; [3]): 50%
15 | TEEEAAYL [APG-2305-13] | – | inhibition of IL-23-induced STAT3 phosphorylation in mouse splenocytes (FIG. 6), change relative to parent 2305 [1]: 25%
16 | [dM][dE][dE][dS][dK][dQ][dL][dQ][dL] [peptide APG-2309] | – | IC50 for IL-23-induced STAT3 phosphorylation in mouse splenocytes (25 ng/ml mouse IL-23) [1]: 2 nM; inhibition of IL-23-induced STAT3 phosphorylation in PMA-activated HL-60 monocytes, IC50 [2]: 2 nM; inhibition of IL-23-induced tumor necrosis factor (TNF) formation in PMA-activated HL-60 monocytes (ELISA), IC50 [2]: 1.6 nM
